Experimental data published in patent US20160229915A1 (Chugai, published 2016).

T1: mouse FcgRIV extracellular domain, C-terminal His tag (mouse, UniProt A0A0B4J1G0 21-203)
T1 construct: also called mFcgRIV; mFcγRIV
T1 sequence: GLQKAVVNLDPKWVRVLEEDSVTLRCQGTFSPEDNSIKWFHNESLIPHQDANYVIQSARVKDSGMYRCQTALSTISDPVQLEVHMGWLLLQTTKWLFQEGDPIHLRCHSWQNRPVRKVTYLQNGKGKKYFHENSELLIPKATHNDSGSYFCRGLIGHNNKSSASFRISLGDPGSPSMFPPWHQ

T2: mouse FcgRI extracellular domain, C-terminal His tag (mouse, UniProt P26151 25-297)
T2 construct: extracellular domain; also called mFcgRI; mFcγRI; not shown: C-terminal His tag
T2 sequence (looked up): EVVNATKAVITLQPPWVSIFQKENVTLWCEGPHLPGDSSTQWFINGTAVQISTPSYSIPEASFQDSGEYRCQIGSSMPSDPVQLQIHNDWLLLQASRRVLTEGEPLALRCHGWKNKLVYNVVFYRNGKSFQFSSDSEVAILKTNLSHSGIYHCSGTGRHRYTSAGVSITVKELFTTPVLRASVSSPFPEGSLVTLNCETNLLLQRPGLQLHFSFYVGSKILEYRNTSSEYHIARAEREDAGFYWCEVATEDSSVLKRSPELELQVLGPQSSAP

T3: mouse FcgRIII extracellular domain, C-terminal His tag (mouse, UniProt P08508 31-215)
T3 construct: extracellular domain; also called mFcgRIII; mFcγRIII; not shown: C-terminal His tag
T3 sequence (looked up): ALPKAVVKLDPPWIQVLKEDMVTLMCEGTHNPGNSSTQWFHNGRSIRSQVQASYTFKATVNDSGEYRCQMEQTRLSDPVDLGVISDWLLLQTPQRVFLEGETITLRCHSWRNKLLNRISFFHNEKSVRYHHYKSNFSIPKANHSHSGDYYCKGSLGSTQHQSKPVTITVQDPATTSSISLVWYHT

T4: mouse FcgRII extracellular domain, C-terminal His tag (mouse, UniProt P08101 30-210)
T4 construct: extracellular domain; also called mFcgRII; mFcγRII; not shown: C-terminal His tag
T4 sequence (looked up): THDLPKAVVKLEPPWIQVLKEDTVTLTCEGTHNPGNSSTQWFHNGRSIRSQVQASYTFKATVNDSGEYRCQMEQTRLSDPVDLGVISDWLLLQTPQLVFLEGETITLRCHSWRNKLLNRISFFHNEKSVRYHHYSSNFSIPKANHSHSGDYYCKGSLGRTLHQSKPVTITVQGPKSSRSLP


What was measured:
mouse FcRn [1] = molecular target: T5, mouse FcRn (mouse, UniProt Q61559 22-297); assay: SPR (Biacore), antibody captured by protein L, mouse FcRn as analyte, pH 6.0, 25 C
T5 construct: also called mFcRn
Procedure: (§1) Next, the binding to mFcRn was evaluated according to Reference Example 4-4.
(§2) Kinetic analysis was conducted on mouse FcRn and each antibody using Biacore T100, Biacore T200, Biacore A100, and Biacore 4000 (GE Healthcare Japan Corp.). An appropriate amount of protein L (ACTIGEN) was immobilized on Sensor Chip CM4 (GE Healthcare Japan Corp.) by the amine coupling method. The antibody of interest was captured onto the chip. Next, a diluted FcRn solution or a running buffer (as a control solution) was injected thereto so that the mouse FcRn was allowed to interact with the antibody captured on the sensor chip. The running buffer used was 50 mmol/L sodium phosphate, 150 mmol/L NaCl, and 0.05% (w/v) Tween 20 (pH 6.0), and each buffer was also used for diluting FcRn. 10 mmol/L glycine-HCl (pH 1.5) was used to regenerate the chip. The assay was conducted at 25° C. for all samples. From the sensorgram obtained by the assay, an association rate constant ka (1/Ms) and a dissociation rate constant […] (1/s) were calculated as kinetic parameters. The KD (M) of each antibody for mouse FcRn was calculated on the basis of the parameters. Biacore Evaluation Software (GE Healthcare Japan Corp.) was used in the calculation of each parameter.

[2] = molecular target: T1, mouse FcgRIV extracellular domain, …; assay: SPR (Biacore), antibody captured on chip, mFcgR extracellular domain as analyte
Procedure: (§3) The two types of bispecific antibodies (MRAH-mIgG1mP3/MRAL-mk1//H54-mIgG1mN3/L28-mk1 and MRAH-mIgG1mP4/MRAL-mk1//H54-mIgG1mN4/L28-mk1) prepared by mouse IgG-type Fab arm exchange were tested for their binding to mouse FcgR and mouse FcRn according to Reference Example 4-3. Also, MRAH-mIgG1/MRAL-mk1 was prepared according to Reference Example 1 and assayed as a control.

[3] = molecular target: T2, mouse FcgRI extracellular domain, …; assay: as above
Procedure: as §3

mouse FcRn [4] = molecular target: T5, mouse FcRn; assay: SPR (Biacore); relative to mIgG1
Procedure: as §1, §2

[5] = molecular target: T3, mouse FcgRIII extracellular domain, …; assay: SPR (Biacore), antibody captured on chip, His-tagged mFcgR extracellular domain as analyte, 25 C
Procedure: as §3

[6] = molecular target: T4, mouse FcgRII extracellular domain, …; assay: as above
Procedure: as §3

[7] = molecular target: T3, mouse FcgRIII extracellular domain, …; assay: SPR (Biacore); binding activity relative to naturally occurring mIgG1
Procedure: as §3

[8] = molecular target: T4, mouse FcgRII extracellular domain, …; assay: as above
Procedure: as §3

[9] = molecular target: T3, mouse FcgRIII extracellular domain, …; assay: SPR (Biacore); relative to mIgG1 (the reference itself)
Procedure: as §3

[10] = molecular target: T4, mouse FcgRII extracellular domain, …; assay: as above
Procedure: as §3

mouse FcRn [11] = molecular target: T5, mouse FcRn; assay: as above
Procedure: as §1, §2

T5 sequence (Q61559 22-297): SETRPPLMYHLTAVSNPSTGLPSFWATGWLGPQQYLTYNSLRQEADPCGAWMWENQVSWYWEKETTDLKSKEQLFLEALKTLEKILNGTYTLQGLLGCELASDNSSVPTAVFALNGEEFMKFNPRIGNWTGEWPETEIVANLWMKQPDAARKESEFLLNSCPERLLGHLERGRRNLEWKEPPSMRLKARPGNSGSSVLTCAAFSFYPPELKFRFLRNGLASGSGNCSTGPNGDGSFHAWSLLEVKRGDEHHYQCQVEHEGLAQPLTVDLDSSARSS

Row | Kd (mouse FcRn [1]) [nM] | binding result [2] | binding result [3] | fold KD (mouse FcRn [4]) [fold] | Kd [5] [nM] | Kd [6] [nM] | KD fold mFcgRIII [7] [fold] | KD fold mFcgRII [8] [fold] | KD fold mFcgRIII [9] [fold] | KD fold mFcgRII [10] [fold] | fold KD (mouse FcRn [11]) [fold] | Binder
1 | 2100 | no binding | no binding | 1.2 | 670 | 670 | 1.2 | 1.2 | – | – | – | MRAH-mIgG1mP3/MRAL-mk1//H54-mIgG1mN3/L28-mk1 (bispecific antibody, Product of mouse IgG1-type Fab arm exchange (D399K on one H chain, K409D on the other); formation efficiency 89.2%, so the preparation may hold some homo variant; also called mIgG1mP3/mN3; mP3/mN3) heavy 1: QVQLQESGPGLVRPSQTLSLTCTVSGYSITSDHAWSWVRQPPGRGLEWIGYISYSGITTYNPSLKSRVTMLRDTSKNQFSLRLSSVTAADTAVYYCARSLARTTAMDYWGQGSLVTVSSAKTTPPSVYPLAPGSAAQTNSMVTLGCLVKGYFPEPVTVTWNSGSLSSGVHTFPAVLQSDLYTLSSSVTVPSSTWPSETVTCNVAHPASSTKVDKKIVPRDCGCKPCICTVPEVSSVFIFPPKPKDVLTITLTPKVTCVVVDISKDDPEVQFSWFVDDVEVHTAQTQPREEQFNSTFRSVSELPIMHQDWLNGKEFKCRVNSAAFPAPIEKTISKTKGRPKAPQVYTIPPPKEQMAKDKVSLTCMITDFFPEDITVEWQWNGQPAENYKNTQPIMKTDGSYFVYSKLNVQKSNWEAGNTFTCSVLHEGLHNHHTEKSLSHSPGK light 1: DIQMTQSPSSLSASVGDRVTITCRASQDISSYLNWYQQKPGKAPKLLIYYTSRLHSGVPSRFSGSGSGTDFTFTISSLQPEDIATYYCQQGNTLPYTFGQGTKVEIKRADAAPTVSIFPPSSEQLTSGGASVVCFLNNFYPKDINVKWKIDGSERQNGVLNSWTDQDSKDSTYSMSSTLTLTKDEYERHNSYTCEATHKTSTSPIVKSFNRNEC heavy 2: QVQLQESGPGLVKPSETLSLTCAVSGYSISDDQAWSWVRQPPGEGLEWIGYISYSGITNYNPSLKGRVTISRDTSKNQFSLKLSSVTAADTAAYYCARSLARTTAMDYWGEGTLVTVSSAKTTPPSVYPLAPGSAAQTNSMVTLGCLVKGYFPEPVTVTWNSGSLSSGVHTFPAVLQSDLYTLSSSVTVPSSTWPSETVTCNVAHPASSTKVDKKIVPRDCGCKPCICTVPEVSSVFIFPPKPKDVLTITLTPKVTCVVVDISKDDPEVQFSWFVDDVEVHTAQTQPREEQFNSTFRSVSELPIMHQDWLNGKEFKCRVNSAAFPAPIEKTISKTKGRPKAPQVYTIPPPKEQMAKDKVSLTCMITDFFPEDITVEWQWNGQPAENYKNTQPIMDTDGSYFVYSDLNVQKSNWEAGNTFTCSVLHEGLHNHHTEKSLSHSPGK light 2: DIQMTQSPSSLSASVGDSVTITCQASQDISSYLNWYQQKPGKAPELLIYYGSELHSGVPSRFSGSGSGTDFTFTISSLEAEDAATYYCQQGNSLPYTFGQGTKVEIERADAAPTVSIFPPSSEQLTSGGASVVCFLNNFYPKDINVKWKIDGSERQNGVLNSWTDQDSKDSTYSMSSTLTLTKDEYERHNSYTCEATHKTSTSPIVKSFNRNEC
2 | 2500 | no binding | no binding | – | 790 | 820 | – | – | 1 | 1 | 1 | MRAH-mIgG1/MRAL-mk1 (antibody, Control with mouse IgG1 H chain constant region and mouse kappa constant region; also called naturally occurring mIgG1) heavy: QVQLQESGPGLVRPSQTLSLTCTVSGYSITSDHAWSWVRQPPGRGLEWIGYISYSGITTYNPSLKSRVTMLRDTSKNQFSLRLSSVTAADTAVYYCARSLARTTAMDYWGQGSLVTVSSAKTTPPSVYPLAPGSAAQTNSMVTLGCLVKGYFPEPVTVTWNSGSLSSGVHTFPAVLQSDLYTLSSSVTVPSSTWPSETVTCNVAHPASSTKVDKKIVPRDCGCKPCICTVPEVSSVFIFPPKPKDVLTITLTPKVTCVVVDISKDDPEVQFSWFVDDVEVHTAQTQPREEQFNSTFRSVSELPIMHQDWLNGKEFKCRVNSAAFPAPIEKTISKTKGRPKAPQVYTIPPPKEQMAKDKVSLTCMITDFFPEDITVEWQWNGQPAENYKNTQPIMDTDGSYFVYSKLNVQKSNWEAGNTFTCSVLHEGLHNHHTEKSLSHSPGK light: DIQMTQSPSSLSASVGDRVTITCRASQDISSYLNWYQQKPGKAPKLLIYYTSRLHSGVPSRFSGSGSGTDFTFTISSLQPEDIATYYCQQGNTLPYTFGQGTKVEIKRADAAPTVSIFPPSSEQLTSGGASVVCFLNNFYPKDINVKWKIDGSERQNGVLNSWTDQDSKDSTYSMSSTLTLTKDEYERHNSYTCEATHKTSTSPIVKSFNRNEC
3 | 1900 | no binding | no binding | 1.3 | 680 | 670 | 1.2 | 1.2 | – | – | – | MRAH-mIgG1mP4/MRAL-mk1//H54-mIgG1mN4/L28-mk1 (bispecific antibody, Product of mouse IgG1-type Fab arm exchange (D399R on one H chain, K409E on the other); formation efficiency 89.9%, so the preparation may hold some homo variant; also called mIgG1mP4/mN4; mP4/mN4) heavy 1: QVQLQESGPGLVRPSQTLSLTCTVSGYSITSDHAWSWVRQPPGRGLEWIGYISYSGITTYNPSLKSRVTMLRDTSKNQFSLRLSSVTAADTAVYYCARSLARTTAMDYWGQGSLVTVSSAKTTPPSVYPLAPGSAAQTNSMVTLGCLVKGYFPEPVTVTWNSGSLSSGVHTFPAVLQSDLYTLSSSVTVPSSTWPSETVTCNVAHPASSTKVDKKIVPRDCGCKPCICTVPEVSSVFIFPPKPKDVLTITLTPKVTCVVVDISKDDPEVQFSWFVDDVEVHTAQTQPREEQFNSTFRSVSELPIMHQDWLNGKEFKCRVNSAAFPAPIEKTISKTKGRPKAPQVYTIPPPKEQMAKDKVSLTCMITDFFPEDITVEWQWNGQPAENYKNTQPIMRTDGSYFVYSKLNVQKSNWEAGNTFTCSVLHEGLHNHHTEKSLSHSPGK light 1: DIQMTQSPSSLSASVGDRVTITCRASQDISSYLNWYQQKPGKAPKLLIYYTSRLHSGVPSRFSGSGSGTDFTFTISSLQPEDIATYYCQQGNTLPYTFGQGTKVEIKRADAAPTVSIFPPSSEQLTSGGASVVCFLNNFYPKDINVKWKIDGSERQNGVLNSWTDQDSKDSTYSMSSTLTLTKDEYERHNSYTCEATHKTSTSPIVKSFNRNEC heavy 2: QVQLQESGPGLVKPSETLSLTCAVSGYSISDDQAWSWVRQPPGEGLEWIGYISYSGITNYNPSLKGRVTISRDTSKNQFSLKLSSVTAADTAAYYCARSLARTTAMDYWGEGTLVTVSSAKTTPPSVYPLAPGSAAQTNSMVTLGCLVKGYFPEPVTVTWNSGSLSSGVHTFPAVLQSDLYTLSSSVTVPSSTWPSETVTCNVAHPASSTKVDKKIVPRDCGCKPCICTVPEVSSVFIFPPKPKDVLTITLTPKVTCVVVDISKDDPEVQFSWFVDDVEVHTAQTQPREEQFNSTFRSVSELPIMHQDWLNGKEFKCRVNSAAFPAPIEKTISKTKGRPKAPQVYTIPPPKEQMAKDKVSLTCMITDFFPEDITVEWQWNGQPAENYKNTQPIMDTDGSYFVYSELNVQKSNWEAGNTFTCSVLHEGLHNHHTEKSLSHSPGK light 2: DIQMTQSPSSLSASVGDSVTITCQASQDISSYLNWYQQKPGKAPELLIYYGSELHSGVPSRFSGSGSGTDFTFTISSLEAEDAATYYCQQGNSLPYTFGQGTKVEIERADAAPTVSIFPPSSEQLTSGGASVVCFLNNFYPKDINVKWKIDGSERQNGVLNSWTDQDSKDSTYSMSSTLTLTKDEYERHNSYTCEATHKTSTSPIVKSFNRNEC
